Among the data in patent US20240101677A1 are Kd and EC50 values, retold here.

The target of assay [1] is cynomolgus monkey CD16A protein (cynomolgus monkey) (UniProt Q8SPW2). Description: BLI (ForteBio), antibody on Protein A sensor, antigen 100 nM, 1:1 model. Background: BLI is a label-free optical method that tracks binding on a fibre tip over time.
Assay [2] addresses human CD16A-158F protein (human) (UniProt P08637). The assay is described as above.
Assay [3] concerns the target human CD16A-158V protein (human) (UniProt P08637). The description is as above.
Assay [4] has as its target CD16A on human primary NK cells (human) (UniProt P08637). Description: flow cytometry (MFI, PE-anti-human Fc) on human primary NK cells, donor SLB190084.
The target is the same in assay [5]. Description: flow cytometry (MFI, PE-anti-human Fc) on human primary NK cells, donor SLB190071. (A flow cytometer gives signals particle by particle.)
For assay [6], the target named is human CD16A (type 158V) on GS-CHO cells (human) (UniProt P08637). As to the kind of experiment: flow cytometry (MFI, PE-anti-human Fc) on GS-CHO cells expressing human CD16A (type 158V).
Sequence of human CD16A (type 158V) on GS-CHO cells (human) (P08637 17-254 F176V): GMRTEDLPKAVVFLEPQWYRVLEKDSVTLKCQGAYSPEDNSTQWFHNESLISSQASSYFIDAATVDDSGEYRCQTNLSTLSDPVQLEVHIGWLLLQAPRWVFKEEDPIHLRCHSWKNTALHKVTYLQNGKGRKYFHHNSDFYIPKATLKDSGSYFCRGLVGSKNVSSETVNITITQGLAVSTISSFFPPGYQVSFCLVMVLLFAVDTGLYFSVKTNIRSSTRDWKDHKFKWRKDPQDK
A further assay addresses CD16A-158V-G129D (human). Description: BLI (ForteBio), method of Example 3, mutant antigen.

Sequence of CD16A on human primary NK cells (human) (P08637 17-254): as the sequence (P08637 17-254 F176V) above, with V160F counted along it
Sequence of human CD16A-158V protein (human) (P08637 17-208 F176V limits assumed): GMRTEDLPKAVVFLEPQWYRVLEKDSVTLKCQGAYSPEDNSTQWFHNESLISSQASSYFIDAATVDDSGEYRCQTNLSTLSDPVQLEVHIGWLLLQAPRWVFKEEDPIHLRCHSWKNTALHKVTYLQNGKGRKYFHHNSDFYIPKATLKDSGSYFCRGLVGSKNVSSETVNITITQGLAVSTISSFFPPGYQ
Sequence of CD16A-158V-G129D (human) (chain, as listed by the source G129D G129D limits assumed): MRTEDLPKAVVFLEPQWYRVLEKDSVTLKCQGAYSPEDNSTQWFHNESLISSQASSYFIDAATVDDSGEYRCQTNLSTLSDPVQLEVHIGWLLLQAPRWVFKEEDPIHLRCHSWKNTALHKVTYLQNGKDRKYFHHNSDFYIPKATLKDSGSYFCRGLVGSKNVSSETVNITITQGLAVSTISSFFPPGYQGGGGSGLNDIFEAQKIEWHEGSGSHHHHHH
Sequence of cynomolgus monkey CD16A protein (cynomolgus monkey) (Q8SPW2 17-208 limits assumed): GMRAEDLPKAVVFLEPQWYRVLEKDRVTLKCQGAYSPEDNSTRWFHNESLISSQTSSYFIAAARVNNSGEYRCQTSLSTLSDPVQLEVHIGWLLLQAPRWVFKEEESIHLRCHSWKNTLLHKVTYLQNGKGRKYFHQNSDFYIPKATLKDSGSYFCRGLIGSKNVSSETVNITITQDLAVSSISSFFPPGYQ
Sequence of human CD16A-158F protein (human) (P08637 17-208 limits assumed): as the sequence (P08637 17-208 F176V limits assumed) above, with V160F counted along it

B1: 4LS21 antibody (CD16A humanized antibody 4LS21 from Affimed Therapeutics AG, in the form of ScFv-Fc) (Fc fusion, not shown: a dimerising Fc or GST; small tags and cut ends)
VH: QVQLVQSGAEVKKPGESLKVSCKASGYTFTSYYMHWVRQAPGQGLEWMGAIEPMYGSTSYAQKFQGRVTMTRDTSTSTVYMELSSLRSEDTAVYYCARGSAYYYDFADYWGQGTLVTVSS
VL: SYVLTQPSSVSVAPGQTATISCGGHNIGSKNVHWYQQRPGQSPVLVIYQDNKRPSGIPERFSGSNSGNTATLTISGTQAMDEADYYCQVWDNYSVLFGGGTKLTVL
Consider B1, for which the Kd (commonly a measure of binding affinity in units of concentration) amounted to 7.94 nM in assay [1], 4.75 nM in assay [2], 7.75 nM in assay [3] and 4.63 nM with CD16A-158V-G129D (human). The half-maximal effective concentration (EC50) (commonly the midpoint of the concentration-response curve) amounted to 15.6 nM in assay [4], 2.64 nM in assay [5] and 11.8 nM in assay [6].
